± gives the uncertainty stated by the source.
B1: Transcription elongation regulator 1-like protein, residues 448 to 504; numbered along this chain, Q5VWI1 (parent)
chain: LPLEERVTHFRDMLLERGVSAFSTWEKELHKIVFDPRYLLLNSEERKQIFEQFVKTR

Variants of: B1
Test: abundance fitness (aPCA) (normalised: wild type 0, dead -1); higher = more abundant; growth selection in yeast, the domain comes from the species named
Settings: Homo sapiens

Variant | abundance fitness
H30A | -0.714 ± 0.29
H30I | -0.439 ± 0.25
H30N | -0.547 ± 0.35
H30G | -0.505 ± 0.19
H30M | -0.515 ± 0.46
H30V | -0.608 ± 0.21
H30T | -0.492 ± 0.18
H30K | -0.403 ± 0.25
H30C | -0.569 ± 0.19
H30L | -0.544 ± 0.26
H30S | -0.585 ± 0.26
H30P | 0.098 ± 0.2
H30W | -0.138 ± 0.19
H30E | -0.276 ± 0.29
H30D | -0.235 ± 0.32
H30R | -0.295 ± 0.16
H30Y | -0.337 ± 0.3
L29R | 0.095 ± 0.13
L29E | 0.139 ± 0.076
L29G | -0.667 ± 0.092
L29K | 0.158 ± 0.16
L29Y | 0.907 ± 0.18
L29T | -0.253 ± 0.11
L29M | 0.377 ± 0.25

Variant | abundance fitness
L29A | -0.409 ± 0.17
L29C | -0.373 ± 0.42
L29P | -0.722 ± 0.17
L29W | -0.986 ± 0.46
L29I | 0.281 ± 0.32
L29H | 0.264 ± 0.19
L29V | -0.213 ± 0.12
L29S | -0.452 ± 0.14
I32T | -0.81 ± 0.43
I32E | -0.633 ± 0.18
I32V | 0.086 ± 0.095
I32K | -0.847 ± 0.32
I32A | -0.909 ± 0.33
I32F | -0.433 ± 0.47
I32C | -0.484 ± 0.39
I32G | -0.764 ± 0.16
I32L | -0.494 ± 0.13
I32W | -0.514 ± 0.32
I32Y | 0.058 ± 0.14
I32S | -0.916 ± 0.23
I32M | -0.466 ± 0.33
I32D | -0.852 ± 0.2
I32P | -0.418 ± 0.12
I32R | -0.538 ± 0.16

Variant | abundance fitness
K27Q | 0.101 ± 0.29
K27R | -0.295 ± 0.14
K27E | -0.165 ± 0.092
K27F | 0.197 ± 0.25
K27V | -0.422 ± 0.12
K27S | -0.679 ± 0.24
K27G | -0.366 ± 0.15
K27W | -0.799 ± 0.37
K27H | -0.612 ± 0.23
K27C | -0.032 ± 0.36
K27A | 0.073 ± 0.15
K27T | -0.711 ± 0.35
K27P | -0.627 ± 0.23
F22I | -0.797 ± 0.33
F22R | -0.155 ± 0.1
F22M | -0.431 ± 0.45
F22Q | 0.199 ± 0.1
F22T | 0.048 ± 0.14
F22P | -0.48 ± 0.28
F22L | -0.045 ± 0.14
F22G | 0.04 ± 0.069
F22S | 0.063 ± 0.092
F22V | -0.439 ± 0.12
F22N | 0.471 ± 0.21

Variant | abundance fitness
F22Y | -0.031 ± 0.088
F34S | 0.229 ± 0.13
F34V | -0.085 ± 0.16
F34H | 0.156 ± 0.35
F34G | 0.11 ± 0.074
F34T | 0.245 ± 0.17
F34K | -0.063 ± 0.34
F34L | -0.019 ± 0.13
F34I | 0.199 ± 0.28
F34R | 0.099 ± 0.071
F34D | 0.351 ± 0.38
F34C | -0.104 ± 0.1
F34W | -0.343 ± 0.2
F34A | 0.029 ± 0.21
F34M | -0.04 ± 0.19
D35G | -0.757 ± 0.14
D35H | -0.354 ± 0.42
D35A | -1.02 ± 0.29
D35E | -0.667 ± 0.37
S23G | -0.353 ± 0.47
S23R | -0.811 ± 0.25
E26S | -0.658 ± 0.2
E26P | -0.294 ± 0.39
E26M | -0.09 ± 0.32

Variant | abundance fitness
E26G | -0.643 ± 0.16
E26L | -0.564 ± 0.11
E26K | -1.04 ± 0.42
E26D | -0.168 ± 0.31
E26A | -0.636 ± 0.28
E26T | -0.524 ± 0.25
E26Q | -0.355 ± 0.46
E26V | -0.914 ± 0.24
E26W | -0.84 ± 0.26
E26C | 0.153 ± 0.33
E26F | -0.617 ± 0.17
E26R | -0.861 ± 0.29
K31V | -0.705 ± 0.12
K31P | -0.681 ± 0.27
K31R | -0.662 ± 0.13
K31F | -0.587 ± 0.31
K31M | -0.496 ± 0.17
K31S | -0.789 ± 0.17
K31C | -0.457 ± 0.15
K31L | -0.781 ± 0.38
T24L | -0.559 ± 0.18
T24S | -0.237 ± 0.082
T24A | -0.561 ± 0.27
T24P | -0.571 ± 0.21

Variant | abundance fitness
T24R | -0.701 ± 0.21
T24I | -0.692 ± 0.24
T24G | -0.662 ± 0.13
T24V | -0.59 ± 0.12
T24C | 0.197 ± 0.41
T24Q | -0.503 ± 0.46
T24H | -0.361 ± 0.38
E28F | -0.796 ± 0.15
E28R | -0.576 ± 0.13
E28M | -1.04 ± 0.4
E28I | -1.02 ± 0.37
E28V | -0.71 ± 0.12
E28G | -0.701 ± 0.18
E28L | -0.446 ± 0.33
E28S | -0.659 ± 0.2
E28Q | -0.641 ± 0.4
E28D | -0.673 ± 0.27
E28A | -0.822 ± 0.19
E28Y | -0.946 ± 0.21
E28C | -0.542 ± 0.27
W25M | -0.154 ± 0.33
W25E | -0.713 ± 0.21
W25R | -0.531 ± 0.12
W25G | -0.898 ± 0.16

Variant | abundance fitness
W25S | -0.55 ± 0.28
W25D | -0.986 ± 0.31
W25A | -0.589 ± 0.09
W25I | -0.393 ± 0.46
W25N | -0.557 ± 0.31
W25Y | 0.169 ± 0.28
W25V | -0.668 ± 0.11
W25L | -0.795 ± 0.29
W25Q | -0.751 ± 0.47
V33L | -0.47 ± 0.13
V33P | -0.112 ± 0.33
V33T | -0.423 ± 0.19
V33C | -0.514 ± 0.46
V33A | -0.138 ± 0.12
V33R | 0.108 ± 0.062
V33H | 0.238 ± 0.44
V33G | -0.764 ± 0.15
V33K | 0.062 ± 0.17
V33W | -0.415 ± 0.21
V33E | -0.076 ± 0.16
V33M | -0.227 ± 0.27
V33I | 0.129 ± 0.33
V33S | 0.028 ± 0.18

Reference: the Human Domainome abundance scans (Beltran et al. 2025)
